According to PMC7190841 (Scientific Reports, 2020):

What was measured:
[1] = molecular target: T1, P-IR(Tyr1158) (Homo sapiens, UniProt P06213); test: Activation of IR in L6hIR cells in vitro, sandwich ELISA; format: cell-based; settings: ligands 0-1000 nM for 30 min, 0.1% human serum albumin, three replicates
T1 construct: expressed in transfected cells; host or cells: rat L6 myoblast cells (L6hIR, generated at Novo Nordisk)
Procedure: L6hIR cells were seeded in 12-well plates and grown until 90–100% confluence in DMEM (Gibco, Invitrogen, Carlsbad, CA, USA). Cells were stimulated with increasing concentrations of ligands (0–1000 nM) for 30 min in DMEM (Gibco) medium containing 0.1% human serum albumin. Subsequently, cells were washed three times in ice-cold phosphate buffered saline (PBS) and snap-frozen by pouring liquid nitrogen into the wells. Cells were lysed in 100 µL lysis buffer (cell extraction buffer from BioSource, Invitrogen, Carlsbad, CA, USA; supplemented with 1 mmol/l 4-(2-aminoethyl)benzenesulfonyl fluoride hydrochloride, and protease inhibitor cocktail from Sigma-Aldrich).
(§1) Fitting of dose-response curves describing thymidine-incorporation in vitro and activation of IR and IGF-1R, including calculation of EC50 values, were conducted with GraphPad Prism (GraphPad Software Inc., La Jolla, CA, USA).

[2] = Lowering of blood glucose in mice with L6hIR xenografts; format: in vivo, mouse; settings: 300 or 600 nmol/kg s.c., experiment D
Procedure: Blood glucose and plasma concentrations of test compounds and endogenous mouse insulin were assessed as described previously[10].

[3] = tested on: L6hIR cells; test: Mitogenic potency from thymidine-incorporation in L6hIR cells; format: cell-based, rat; settings: weighted mean [95% CI], at least three independent experiments
Procedure: as §1
(§2) H4IIE cells (ATCC, Manassas, VA, USA) were cultured in minimum essential medium (MEM) (Gibco) supplemented with 10% (v/v) FBS, 100 µg/ml penicillin and 100 U/ml streptomycin, 1% (v/v) MEM non-essential amino acids and 1% (v/v) pyruvate (all from Gibco).

[4] = tested on: IR and IGF-1R in L6hIR xenografts; test: Acute activation of IR and IGF-1R in L6hIR xenografts in vivo; design: species or system mouse; settings: experiment A; 300 nmol/kg s.c., single treatment, euthanized 20 min later; n = 7-8
Procedure: Male BALB/c nude mice (CAnN.Cg-Foxn1 nu/Crl) were purchased from Charles River (Charles River Laboratories Germany, Sulzfeld, Germany) at age of seven weeks and housed five mice per cage in individually ventilated Techniplast GR 900 Seal Safe Plus cages, with unrestricted access to a complete pelleted rodent diet (Altromin 1324, Brogården, Hørsholm, Denmark) and tap water (non-chlorinated, non-acidified). In the animal room the temperature was 18–24 °C, with relative humidity at 30–70%, air change 8–15 times/h and a light-dark cycle of 12/12 h. All mice were acclimatized for 10 days before experiments were started. On day 0, all mice were injected s.c. in the right flank with 2.5 million L6hIR (six experiments) or L6 cells (one experiment), suspended in 0.1 ml PBS. On the same day treatment with vehicle or test compounds was started and continued either once or twice daily until the end of the experiment (Supplementary Table S5). […]
L6hIR cell xenograft samples were lysed in cell extraction buffer as described previously[10]. Protein concentration of cell and xenograft lysates was assessed with Pierce BCA protein assay kit (Thermo Fisher Scientific, Hvidovre, Denmark), according to the manufacturer’s instructions.

[5] = tested on: H4IIE cells; test: Mitogenic potency from thymidine-incorporation in H4IIE cells; format: cell-based, rat; settings: weighted mean [95% CI], at least three independent experiments
Procedure: as §1, §2

[6] = Pharmacokinetics after s.c. injection in mice; format: in vivo; settings: mouse; for t1/2 / Cmax: mean [95% CI]; for t1/2 / tmax / Cmax: n = 15; for tmax: median; for Cmax: sparse sampling 0-240 min, population PK and non-compartment analysis
Procedure: Pharmacokinetic (PK) parameters were estimated from the two experiments with sparse sampling (three blood samples per mouse) for 0–240 min. Initially, population PK models[25] for each compound was developed in Nonmem (Icon, Dublin, Ireland) and approximately 60 individual post-hoc concentration-time data points per mouse was subjected to non-compartment analysis.

[7] = s.c., range over doses of 300 and 600 nmol/kg of HI and IX10

T1 sequence (P06213 28-1370 isoform P06213-2 limits assumed): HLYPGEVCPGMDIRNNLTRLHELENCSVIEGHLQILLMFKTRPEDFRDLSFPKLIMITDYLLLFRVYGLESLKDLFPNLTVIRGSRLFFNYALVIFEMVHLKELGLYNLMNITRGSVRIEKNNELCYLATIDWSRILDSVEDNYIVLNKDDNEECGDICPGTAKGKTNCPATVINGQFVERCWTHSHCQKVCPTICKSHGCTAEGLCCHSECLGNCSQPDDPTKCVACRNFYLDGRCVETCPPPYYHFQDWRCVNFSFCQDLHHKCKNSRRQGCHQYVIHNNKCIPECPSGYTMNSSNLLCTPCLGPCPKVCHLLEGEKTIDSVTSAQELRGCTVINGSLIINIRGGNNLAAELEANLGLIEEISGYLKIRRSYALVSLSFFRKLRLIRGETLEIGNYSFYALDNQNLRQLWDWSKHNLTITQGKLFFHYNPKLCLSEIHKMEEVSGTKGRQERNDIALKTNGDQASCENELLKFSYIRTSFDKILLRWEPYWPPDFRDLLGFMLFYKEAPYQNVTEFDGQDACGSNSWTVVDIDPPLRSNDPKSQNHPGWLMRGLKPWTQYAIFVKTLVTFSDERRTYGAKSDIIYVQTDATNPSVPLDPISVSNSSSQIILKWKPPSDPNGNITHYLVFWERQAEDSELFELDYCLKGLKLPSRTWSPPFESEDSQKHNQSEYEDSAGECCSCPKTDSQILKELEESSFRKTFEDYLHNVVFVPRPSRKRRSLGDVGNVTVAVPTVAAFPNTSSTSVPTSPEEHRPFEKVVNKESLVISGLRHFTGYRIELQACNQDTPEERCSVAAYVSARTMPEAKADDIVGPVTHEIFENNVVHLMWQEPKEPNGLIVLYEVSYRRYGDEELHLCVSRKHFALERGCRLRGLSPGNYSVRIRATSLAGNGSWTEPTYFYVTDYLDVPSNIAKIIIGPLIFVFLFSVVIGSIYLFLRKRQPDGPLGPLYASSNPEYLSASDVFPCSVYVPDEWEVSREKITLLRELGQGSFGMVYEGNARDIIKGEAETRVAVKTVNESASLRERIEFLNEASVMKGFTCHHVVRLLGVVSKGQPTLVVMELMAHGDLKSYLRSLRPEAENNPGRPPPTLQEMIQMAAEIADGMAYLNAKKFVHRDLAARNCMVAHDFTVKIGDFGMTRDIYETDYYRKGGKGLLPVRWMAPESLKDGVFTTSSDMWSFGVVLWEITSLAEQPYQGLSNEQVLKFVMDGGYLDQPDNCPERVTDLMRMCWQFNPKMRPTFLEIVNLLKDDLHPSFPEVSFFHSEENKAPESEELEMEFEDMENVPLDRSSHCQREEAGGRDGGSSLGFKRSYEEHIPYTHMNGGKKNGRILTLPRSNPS
T1 sequence (P06213 763-1382 partner limits assumed): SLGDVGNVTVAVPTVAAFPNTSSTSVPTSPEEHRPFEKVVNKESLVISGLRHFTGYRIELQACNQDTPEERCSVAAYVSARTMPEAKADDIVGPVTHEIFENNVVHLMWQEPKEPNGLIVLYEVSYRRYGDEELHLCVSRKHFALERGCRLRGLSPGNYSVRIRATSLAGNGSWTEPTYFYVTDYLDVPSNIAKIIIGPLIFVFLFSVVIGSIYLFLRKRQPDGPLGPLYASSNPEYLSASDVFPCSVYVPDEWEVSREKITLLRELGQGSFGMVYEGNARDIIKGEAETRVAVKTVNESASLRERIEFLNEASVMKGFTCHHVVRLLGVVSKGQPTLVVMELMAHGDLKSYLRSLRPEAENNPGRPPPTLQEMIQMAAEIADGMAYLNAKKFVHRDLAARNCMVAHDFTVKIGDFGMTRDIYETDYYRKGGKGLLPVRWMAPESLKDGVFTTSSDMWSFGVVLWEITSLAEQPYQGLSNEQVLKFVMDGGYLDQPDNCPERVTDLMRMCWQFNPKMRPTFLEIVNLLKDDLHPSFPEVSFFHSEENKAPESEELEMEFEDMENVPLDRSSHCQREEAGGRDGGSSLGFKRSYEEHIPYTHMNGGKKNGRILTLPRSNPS

IGF-1: human IGF-1, reference ligand in receptor activation assays
EC50 [1]: 25.8 nM

human insulin [HI]
Duration of decreased blood glucose [2]: 4 to 6 h | mitogenic potency L6hIR cells (% of HI) [3]: 100 % of HI | Activation of IR and IGF-1R in L6hIR xenografts in vivo [4]: acute activation of IR and IGF-1R | mitogenic potency H4IIE cells (% of HI) [5]: 100 % of HI | t1/2 ([6]; 300 nmol/kg s.c., experiment H): 96 [85 ; 107] min | tmax ([6]; 300 nmol/kg s.c., experiment H): 11 min | Cmax ([6]; 300 nmol/kg s.c., experiment H): 725.7 [654.0 ; 797.4] nmol/l | t1/2 ([6]; 600 nmol/kg s.c., experiment I): 52 [48 ; 56] min | tmax ([6]; 600 nmol/kg s.c., experiment I): 17 min | Cmax ([6]; 600 nmol/kg s.c., experiment I): 812.5 [761.7 ; 863.4] nmol/l | elimination half-life [6, 7]: 60 to 90 min | maximum plasma concentration [6, 7]: 500 to 850 nmol/L | time of maximum plasma concentration after s.c. injection [6, 7]: 11 to 17 min
